One series concerns the target T1, Slr1022 (Synechocystis sp. PCC 6803, UniProt P73133).
T1 construct: gene argD
T1 sequence (P73133 1-429): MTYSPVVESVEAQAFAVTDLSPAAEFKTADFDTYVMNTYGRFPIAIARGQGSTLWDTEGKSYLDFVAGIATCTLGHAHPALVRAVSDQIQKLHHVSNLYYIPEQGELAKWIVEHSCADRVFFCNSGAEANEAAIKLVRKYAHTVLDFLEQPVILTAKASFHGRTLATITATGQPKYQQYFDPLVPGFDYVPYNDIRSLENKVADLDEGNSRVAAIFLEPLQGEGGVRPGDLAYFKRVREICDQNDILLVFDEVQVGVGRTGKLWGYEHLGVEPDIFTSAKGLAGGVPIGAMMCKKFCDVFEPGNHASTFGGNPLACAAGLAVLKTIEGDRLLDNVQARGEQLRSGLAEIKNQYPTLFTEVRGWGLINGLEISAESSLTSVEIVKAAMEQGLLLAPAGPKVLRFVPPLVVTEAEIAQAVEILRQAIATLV
As to the kind of experiment: UV-visible absorption at […] nm (internal aldimine). The class given is binding. To be noted: 100 mmol/L Tris-HCl pH 8.5; covalent (Schiff base).

Substrate in series [1]: O=C(O)CCC(=O)C(=O)O
As to the kind of experiment: purified protein. The class given is biochemical, Synechocystis sp. PCC 6803. To be noted: 100 mmol/L Orn as amino donor, 0.1 mmol/L PLP, 6 mmol/L NAD+, 100 mmol/L Tris-HCl pH 8.5, 25 °C, apparent.

Series [2] deals with the molecule itself. In words: SEC; FPLC, Bio-Rad NGC system, ENrich SEC 650 gel filtration column, mobile phase standard PBS without exogenous PLP; mass calibrated with myoglobin, ovalbumin, bovine serum albumin and gamma-globulin.
Substrate in series [3]: NCCCC(=O)O
As to the kind of experiment: purified protein. To be noted: 0.5 mmol/L α-KG, 0.05 mmol/L PLP, 2 mmol/L Mg2+, 2 mmol/L NADP+, 100 mmol/L Tris-HCl pH 8.5, 25 °C, apparent.

Substrate in series [4]: NCCC[C@H](N)C(=O)O
As to the kind of experiment: purified protein. To be noted: 0.5 mmol/L α-KG, 0.1 mmol/L PLP, 6 mmol/L NAD+, 100 mmol/L Tris-HCl pH 8.5, 25 °C, apparent.

Substrate in series [5]: CC(=O)N[C@@H](CCCN)C(=O)O
As to the kind of experiment: purified protein. The class given is biochemical, Synechocystis sp. PCC 6803. To be noted: saturating α-KG, 0.1 mmol/L PLP, 6 mmol/L NAD+, 100 mmol/L Tris-HCl pH 8.5, 25 °C, apparent.

Numbering of substitutions follows the chain as printed. Names may count otherwise.

Broadly, the Km is the substrate concentration at which the rate is half of its maximum. What is called kcat is the maximal rate divided by the concentration of active sites. Usually kcat/Km stands for the turnover number divided by the Michaelis constant. By stoichiometry N is commonly meant the number of molecules, sites or subunits per partner or assembly.

As for `Cc1ncc(COP(=O)(O)O)c(C=O)c1O` [PLP], the “UV-visible absorption at 410 nm (internal aldimine)” value at Slr1022 is listed as “indicating that the cofactor PLP was bound to Slr1022 in the form of internal aldimine”.

B1: recombinant Slr1022 protein (N-acetylornithine aminotransferase encoded by slr1022 gene from Synechocystis sp. PCC6803) (enzyme, UniProt P73133 1-429, looked up)
chain: T1 sequence (P73133 1-429)
notes: N-acetylornithine aminotransferase (AcOAT) encoded by the slr1022 (argD) gene of Synechocystis sp; PCC6803; monomer printed as 49 kDa; The purified protein carries the cofactor PLP as internal aldimine (absorption at 410 nm); also called AcOAT; wild-type Slr1022; source: E. coli BL21 (DE3), pET28a-slr1022, purified (Ni-NTA)
Regarding B1, in the series “purified protein [1]”, the Km is 130 ± 30 µM, the kcat stood at 0.11 ± 0.01 s⁻¹ and the kcat/Km turned out to be 846 M⁻¹ s⁻¹. For the same molecule, the “stoichiometry N” value in series [2] was 2. In “purified protein [3]”, the Km was 78100 ± 18700 µM, the kcat stood at 0.14 s⁻¹ and the kcat/Km is 1.8 M⁻¹ s⁻¹. Moreover, in “purified protein [4]”, the Km amounted to 20900 ± 3500 µM, the kcat is 0.16 s⁻¹ and the kcat/Km was determined as 7.7 M⁻¹ s⁻¹.

B2: Slr1022 (Synechocystis sp. PCC 6803 substr. Kazusa; D251E) (protein)
chain: T1 sequence (P73133 1-429) with D251E
Turning to B2, in “purified protein [5]”, the Km is 1390 ± 220 µM and the kcat was 0.47 ± 0.03 s⁻¹.

B3: Slr1022 (Synechocystis sp. PCC 6803 substr. Kazusa; S125A) (protein)
chain: T1 sequence (P73133 1-429) with S125A
On to B3, for which, in “purified protein [5]”, the Km was found to be 230 ± 20 µM and the kcat came out at 0.32 ± 0.01 s⁻¹.

B4: Slr1022 (Synechocystis sp. PCC 6803 substr. Kazusa; E223S) (protein)
chain: T1 sequence (P73133 1-429) with E223S
In the case of B4, in the series “purified protein [5]”, the Km came to 8810 ± 2960 µM and the kcat came out at 3.67 ± 0.43 s⁻¹.

B5: Slr1022 (Synechocystis sp. PCC 6803 substr. Kazusa; E223A) (protein)
chain: T1 sequence (P73133 1-429) with E223A
As for B5, in “purified protein [5]”, the Km worked out at 7770 ± 1760 µM and the kcat is 1.17 ± 0.09 s⁻¹.

B6: Slr1022 (Synechocystis sp. PCC 6803 substr. Kazusa; Y39F) (protein)
chain: T1 sequence (P73133 1-429) with Y39F
B6: in “purified protein [5]”, the Km was 470 ± 50 µM and the kcat was determined as 0.17 ± 0.01 s⁻¹.

B7: Slr1022 (Synechocystis sp. PCC 6803 substr. Kazusa; A127S) (protein)
chain: T1 sequence (P73133 1-429) with A127S
B7: in “purified protein [5]”, the Km was determined as 590 ± 120 µM and the kcat is 0.21 ± 0.01 s⁻¹.

B8: Slr1022 (Synechocystis sp. PCC 6803 substr. Kazusa; Q254A) (protein)
chain: T1 sequence (P73133 1-429) with Q254A
Turning to B8, in the series “purified protein [5]”, the Km was found to be 110 ± 10 µM and the kcat is 0.02 ± 0.0005 s⁻¹.

B9: Slr1022 (Synechocystis sp. PCC 6803 substr. Kazusa; T308A) (protein)
chain: T1 sequence (P73133 1-429) with T308A
Take B9: in “purified protein [5]”, the Km came out at 140 ± 20 µM and the catalytic constant (kcat) turned out to be 0.007 ± 0.002 s⁻¹.

These data come from publication PMC10057298, “Kinetic Characterization and Catalytic Mechanism of N-Acetylornithine Aminotransferase Encoded by slr1022 Gene from Synechocystis sp. PCC6803” (International Journal of Molecular Sciences, 2023).
